Article doi:10.1101/2020.03.30.016154 (bioRxiv, 2020)

Molecular target: the molecule itself
Assay: cryo-EM structure

B1: full-length mouse serotonin (3A) receptor (5-HT3AR) (receptor, UniProt P23979-2 24-483, looked up)
chain: SRRRATQARDTTQPALLRLSDHLLANYKKGVRPVRDWRKPTTVSIDVIMYAILNVDEKNQVLTTYIWYRQYWTDEFLQWTPEDFDNVTKLSIPTDSIWVPDILINEFVDVGKSPNIPYVYVHHRGEVQNYKPLQLVTACSLDIYNFPFDVQNCSLTFTSWLHTIQDINITLWRSPEEVRSDKSIFINQGEWELLEVFPQFKEFSIDISNSYAEMKFYVIIRRRPLFYAVSLLLPSIFLMVVDIVGFCLPPDSGERVSFKITLLLGYSVFLIIVSDTLPATAIGTPLIGVYFVVCMALLVISLAETIFIVRLVHKQDLQRPVPDWLRHLVLDRIAWILCLGEQPMAHRPPATFQANKTDDCSAMGNHCSHVGGPQDLEKTPRGRGSPLPPPREASLAVRGLLQELSSIRHFLEKRDEMREVARDWLRVGYVLDRLLFRIYLLAVLAYSITLVTLWSIWHYS
- stoichiometry N: 5
